According to patent US20210228853A1, “DRUG DELIVERY METHODS TARGETING THE LYMPHATIC SYSTEM” (Sorrento Therapeutics, Inc., priority 2018, published 2021):

Key:
[1] = Etanercept pharmacokinetics in rat serum by route of administration (ELISA); format: in vivo, Sprague Dawley rats
Method: Methods and procedures for some of these experiments have been adapted from Aldrich, et al., Arthritis Res. Ther., (2017), 19:116 (DOI 10.1186/s13075-017-1323-z; Open Access) which is incorporated by reference herein in its entirety for all purposes.
In order to characterize differences in etanercept delivery by the different routes of administration, normal rats were used to determine the PK profiles following a single dose of 1 mg etanercept in 100 μL delivered via Sofusa™ (n=6), conventional IV (in the tail vein, n=6), SC (dorsolateral injection at the same site as the Sofusa™ application, n=4), or ID injections (symmetrical dorsolateral injections 2×50 uL for a total dose of 1 mg etanercept, n=6). Other than the Sofusa™ delivery, all administration was conducted using a 31-gauge needle. At 2, 4, 8, 12, 24, and 36 h after administration, animals were anesthetized under isoflurane, and 200 μL of blood was drawn from the jugular vein. The etanercept concentration in serum was quantified using the Etanercept ELISA Kit (ABIN: 1540251) (Matriks Biotechnology Co., LTD., Ankara, Turkey). Optical density was measured at 450 nm using Thermo Scientific Multiskan EX (Thermo Fisher Scientific, Waltham, Mass., USA).

[2] = Biodistribution of radiolabeled etanercept to axillary and inguinal lymph nodes; format: in vivo; conditions: rat; Sofusa vs intravenous or subcutaneous; 12 and 36 hours; 1 mg
Method: In order to determine the amount etanercept delivered to the lymph nodes, a radiolabeled etanercept solution was administrated using the Sofusa™ drug delivery platform (1 mg etanercept in 100 μL), IV (1 mg etanercept in the tail vein in 100 μL), SC (1 mg etanercept in the dorsolateral side at the same site as the Sofusa™ application, 100 μL), and ID (1 mg total etanercept in two 50 μL injections). Animals were harvested at 12 and 36 hrs after administration, and the left/right axillary and inguinal lymph nodes were collected, weighed, and counted for radioactivity using a 2480 Wizard2 automatic gamma counter (PerkinElmer, Waltham, Mass., USA). The time-corrected radioactivity was then used to compute the μg/mL of tissue etanercept concentration from the specific radioactivity of the dosing solution with animals that were euthanized at 12 hrs (n=4, Sofusa™; n=6, IV; n=6, ID; and n=6, SC) and at 36 hrs (n=6, Sofusa™; n=6, IV; n=6, ID; and n=6, SC).
In order to validate the amount of etanercept delivered, the radioactivity was measured in the Sofusa™ device and tubing before and after the 1 hr infusion. Measurement was conducted using the dose calibrator. The amount of etanercept delivered as the difference in the time-corrected radioactivity before and after administration was determined.

[3] = system: Collagen Induced Arthritic (CIA) Model for Rheumatoid Arthritis (RA); assay: Collagen induced arthritic (CIA) model for rheumatoid arthritis, hind limb/joint swelling; format: in vivo, rat
Method: (§1) Specifically, type II porcine collagen (Chondrex, Inc. catalog #20031), solubilized in 0.05 N of acetic acid in sterile water at a concentration of 2 mg/mL was emulsified with an equal volume of incomplete Freud's adjuvant (Chondrex, Inc. catalog #7002) using homogenization at 35,000 rpm (Omni International homogenizer TH, homogenizer probe #32750); 100 μL emulsion was injected subcutaneously at the base of the tails on both sides for initial administration (day 0, 200 μL of emulsion total), and then again, 7 days later, on the right side only, for booster administration (day 7, 100 μL of emulsion total). Hind limb swelling, usually evident by day 14, was assessed by caliper measurements of the rear ankle cross (side-to-side) and oblique (front-to-back) dimensions. The two measurements for each hind limb were multiplied together for assessment of swelling, and the percent change from baseline was computed. These measurements and lymphatic imaging were performed on days 0, 7, 11, 13, and 18, in the early stages of CIA before the onset of joint destruction. Four groups of animals were studied: (1) untreated (n=20), (2) treated with etanercept given by SC administration (n=20, 1 mg in 100 μL), (3) treated with etanercept given by ID administration (n=20, two administrations of 0.5 mg in 50 μL), and (4) treated with etanercept given via Sofusa™ (n=18, one administration of 1 mg in 100 μL delivered).

[4] = system: Collagen Induced Arthritic (CIA) Model for Rheumatoid Arthritis (RA); assay: Lymphatic pumping rate by NIRF imaging in CIA rats; format: in vivo, rat; conditions: for lymphatic pumping in the hind limbs vs untreated animals: CIA rat, days 13 and 18 post CIA induction
Method: as §1, with “delivered). Rats were anesthetized with isoflurane and shaved before imaging; 10 μL of 625 μM ICG was then injected ID with a 31-gauge needle/syringe (BD #328438, Fisher Scientific) at the base of the tail and on the dorsal side of the paw on both the right and left sides of the rats to perform NIRF imaging of the lymphatics. […] The integration time for fluorescence images was 200 ms; 300-900 images were collected per lateral side per rat for lymph propulsive frequency measurements. […]” for “delivered).”

[5] = Etanercept pharmacokinetics in porcine model by route of administration; format: in vivo, Yorkshire pig
[6] = Sofusa drug delivery platform vs subcutaneous
[7] = Table 1, IV, 1 mg etanercept single dose
[8] = Table 1, SC, 1 mg etanercept single dose
[9] = Table 2 summary, Sofusa drug delivery platform

With etanercept the “AUC48, Sofusa compared to SC” value [1, 6] was “almost double”, the “Tmax, Sofusa compared to SC” value [1, 6] was “significantly shorter” and the AUC0-48 [1, 7] was 2,800 hrs-μg/mL. The BA [1, 7] was 100%, the Cmax [1, 7] was 120000 ng/mL and the Tmax [1, 7] was 8 h. For the same substance, the AUC0-48 [1, 8] was 302 hrs-μg/mL, the BA [1, 8] was 10% and the Cmax [1, 8] was 15000 ng/mL. For the same substance, the Tmax [1, 8] was 36 h, the AUC0-48 ([1]; Table 1, Sofusa Study 1) was 545 hrs-μg/mL and the BA ([1]; Table 1, Sofusa Study 1) was 20%. The Cmax ([1]; Table 1, Sofusa Study 1) was 25000 ng/mL, the Tmax ([1]; Table 1, Sofusa Study 1) was 4 h and the AUC0-48 ([1]; Table 1, Sofusa Study 2) was 502 hrs-μg/mL. The BA ([1]; Table 1, Sofusa Study 2) was 18%, the Cmax ([1]; Table 1, Sofusa Study 2) was 22000 ng/mL and the Tmax ([1]; Table 1, Sofusa Study 2) was 2 h. It also gave an AUC0-48 ([1]; Table 1, Sofusa Study 3) of 538 hrs-μg/mL, a BA ([1]; Table 1, Sofusa Study 3) of 19% and a Cmax ([1]; Table 1, Sofusa Study 3) of 20000 ng/mL. It also gave a Tmax ([1]; Table 1, Sofusa Study 3) of 2 h, an AUC0-48 ([1]; Table 2 summary, SC) of 492 hrs-μg/mL and a BA ([1]; Table 2 summary, SC) of 17%. For the same substance, the Cmax ([1]; Table 2 summary, SC) was 15000 ng/mL, the Tmax ([1]; Table 2 summary, SC) was 36 h and the AUC0-48 [1, 9] was 800 hrs-μg/mL. For the same substance, the BA [1, 9] was 29%, the Cmax [1, 9] was 19000 ng/mL and the Tmax [1, 9] was 10 h. The AUC0-36 ([1]; Table 3, Intradermal) was 696 µg·h/mL, the BA ([1]; Table 3, Intradermal) was 25% and the Cmax ([1]; Table 3, Intradermal) was 21000 ng/mL. For the same substance, the Tmax ([1]; Table 3, Intradermal) was 12 h, the AUC0-36 ([1]; Table 3, Intravenous) was 2,815 μg-hour/ml and the BA ([1]; Table 3, Intravenous) was 100%. The Cmax ([1]; Table 3, Intravenous) was 120000 ng/mL, the Tmax ([1]; Table 3, Intravenous) was 2 h and the AUC0-36 ([1]; Table 3, Sofusa) was 1010 µg·h/mL. The BA ([1]; Table 3, Sofusa) was 36%, the Cmax ([1]; Table 3, Sofusa) was 23000 ng/mL and the Tmax ([1]; Table 3, Sofusa) was 12 h. It also gave an AUC0-36 ([1]; Table 3, Subcutaneous) of 302 µg·h/mL, a BA ([1]; Table 3, Subcutaneous) of 11% and a Cmax ([1]; Table 3, Subcutaneous) of 15000 ng/mL. For the same substance, the Tmax ([1]; Table 3, Subcutaneous) was 36 h, the “active agent in the axillary and inguinal lymph nodes” value [2] was “significantly more of the active agent” and the “joint swelling over time” value ([3]; CIA RA rat model, Sofusa administration, 1 mg) was “decreased joint swelling over time”. For the same substance, the “increase in swelling with progression of disease (paired group comparisons, ANOVA)” value (“increase in swelling with progression” below) ([3]; CIA rat, ID administration) was “swelling was significantly increased”, the “increase in swelling with progression” value ([3]; CIA rat, SC administration) was “swelling was significantly increased” and the “increase in swelling with progression” value ([3]; CIA rat, SOFUSA administration) was “no statistically significant increase in swelling”. The “swelling of the hind limbs vs untreated animals” value ([3]; CIA rat, all treated groups (SC, ID, Sofusa), days 13 and 18) was “significant reduction in swelling”, the “hind limb swelling, SOFUSA compared to SC-treated animals” value ([3]; CIA rat, days 13 and 18) was “significantly reduced hind limb swelling” and the lymphatic pumping rate ([4]; CIA RA rat, Sofusa compared to untreated, ID and SC groups) was “significantly increased”. For the same substance, the “lymphatic pumping in the hind limbs vs untreated animals” value ([4]; SC administration) was “statistically significant greater lymphatic pumping”, the “lymphatic pumping in the hind limbs vs untreated animals” value ([4]; SOFUSA administration) was “statistically significant greater lymphatic pumping” and the “AUC48 and bioavailability, Sofusa vs intravenous” value [5] was “comparable to that for intravenous administration”. The “AUC48 and bioavailability, Sofusa vs subcutaneous” value [5] was “significantly higher than that for subcutaneous delivery”, the serum concentration ([5]; Sofusa at a dose much lower than subcutaneous administration) was “maintained a serum concentration at a therapeutically effective concentration” and the AUC0-48 ([5]; Table 4, IV) was 143 hrs-μg/mL. For the same substance, the BA ([5]; Table 4, IV) was 100%, the Cmax ([5]; Table 4, IV) was 6000 ng/mL and the Tmax ([5]; Table 4, IV) was 2 h. The AUC0-48 ([5]; Table 4, SC) was 89 hrs-μg/mL, the BA ([5]; Table 4, SC) was 62% and the Cmax ([5]; Table 4, SC) was 2000 ng/mL. For the same substance, the Tmax ([5]; Table 4, SC) was 24 h, the AUC0-48 ([5]; Table 4, Sofusa) was 132 hrs-μg/mL and the BA ([5]; Table 4, Sofusa) was 93%. It also gave a Cmax ([5]; Table 4, Sofusa) of 4400 ng/mL and a Tmax ([5]; Table 4, Sofusa) of 24 h.
